Experimental data published in article PMC3797246 (Structure (London, England : 1993), 2013).
Substitutions are numbered along the chain they refer to. Names and notes keep the numbering of the source.

What was measured:
co-IP = target: the molecule itself; test: co-IP
AUC = target: the molecule itself; test: AUC
SEC = target: the molecule itself; test: SEC
[1] = target: T1, SARAH domain of human RASSF5 (RASSF5^SARAH, residues 366-413) (human, UniProt Q8WWW0 366-413); test: SEC
T1 chain (looked up): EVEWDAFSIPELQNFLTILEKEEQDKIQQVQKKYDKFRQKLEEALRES

B1: Mst2 D456A, full-length, in vitro translated (enzyme, human, UniProt Q13188 1-491, looked up)
chain: MEQPPAPKSKLKKLSEDSLTKQPEEVFDVLEKLGEGSYGSVFKAIHKESGQVVAIKQVPVESDLQEIIKEISIMQQCDSPYVVKYYGSYFKNTDLWIVMEYCGAGSVSDIIRLRNKTLIEDEIATILKSTLKGLEYLHFMRKIHRDIKAGNILLNTEGHAKLADFGVAGQLTDTMAKRNTVIGTPFWMAPEVIQEIGYNCVADIWSLGITSIEMAEGKPPYADIHPMRAIFMIPTNPPPTFRKPELWSDDFTDFVKKCLVKNPEQRATATQLLQHPFIKNAKPVSILRDLITEAMEIKAKRHEEQQRELEEEEENSDEDELDSHTMVKTSVESVGTMRATSTMSEGAQTMIEHNSTMLESDLGTMVINSEDEEEEDGTMKRNATSPQVQRPSFMDYFDKQDFKNKSHENCNQNMHEPFPMSKNVFPDNWKVPQDGDFDFLKNLSLEELQMRLKALAPMMEREIEELRQRYTAKRQPILDAMDAKKRRQQNF
modifications: 35S-methionine label
co-IP
  binding compared to wild-type Mst2: ≥ 30%

B2: Mst2 K473A, full-length, in vitro translated (enzyme, human, UniProt Q13188 1-491, looked up)
chain: B1 chain with A456D, K473A
modifications: 35S-methionine label
co-IP
  binding compared to wild-type Mst2: ≥ 30%

B3: Mst2 R474A, full-length, in vitro translated (enzyme, human, UniProt Q13188 1-491, looked up)
chain: B1 chain with A456D, R474A
modifications: 35S-methionine label
co-IP
  binding compared to wild-type Mst2: ≥ 30%

B4: Mst2 L445A, full-length, in vitro translated (enzyme, human, UniProt Q13188 1-491, looked up)
chain: B1 chain with L445A, A456D
modifications: 35S-methionine label
co-IP
  binding compared to wild-type Mst2: ≥ 30%

B5: Mst2 R467A, full-length, in vitro translated (enzyme, human, UniProt Q13188 1-491, looked up)
chain: B1 chain with A456D, R467A
modifications: 35S-methionine label
co-IP
  binding compared to wild-type Mst2: ≥ 30%

B6: Mst2 L466A, full-length, in vitro translated (enzyme, human, UniProt Q13188 1-491, looked up)
chain: B1 chain with A456D, L466A
modifications: 35S-methionine label
co-IP
  binding compared to wild-type Mst2: ≥ 30%

B7: Mst2 R469A, full-length, in vitro translated (enzyme, human, UniProt Q13188 1-491, looked up)
chain: B1 chain with A456D, R469A
modifications: 35S-methionine label
co-IP
  binding compared to wild-type Mst2: ≥ 30%

B8: catalytically inactive mutant of the human Mst2 kinase domain (Mst2^KD/D146N) (domain or fragment, UniProt Q13188 16-313, looked up)
chain: EDSLTKQPEEVFDVLEKLGEGSYGSVFKAIHKESGQVVAIKQVPVESDLQEIIKEISIMQQCDSPYVVKYYGSYFKNTDLWIVMEYCGAGSVSDIIRLRNKTLIEDEIATILKSTLKGLEYLHFMRKIHRNIKAGNILLNTEGHAKLADFGVAGQLTDTMAKRNTVIGTPFWMAPEVIQEIGYNCVADIWSLGITSIEMAEGKPPYADIHPMRAIFMIPTNPPPTFRKPELWSDDFTDFVKKCLVKNPEQRATATQLLQHPFIKNAKPVSILRDLITEAMEIKAKRHEEQQRELEEEE
AUC
  stoichiometry N: 2

B9: full-length Mst2 (Mst2^FL, residues 9-491) (enzyme, human, UniProt Q13188 9-491, looked up)
chain: SKLKKLSEDSLTKQPEEVFDVLEKLGEGSYGSVFKAIHKESGQVVAIKQVPVESDLQEIIKEISIMQQCDSPYVVKYYGSYFKNTDLWIVMEYCGAGSVSDIIRLRNKTLIEDEIATILKSTLKGLEYLHFMRKIHRDIKAGNILLNTEGHAKLADFGVAGQLTDTMAKRNTVIGTPFWMAPEVIQEIGYNCVADIWSLGITSIEMAEGKPPYADIHPMRAIFMIPTNPPPTFRKPELWSDDFTDFVKKCLVKNPEQRATATQLLQHPFIKNAKPVSILRDLITEAMEIKAKRHEEQQRELEEEEENSDEDELDSHTMVKTSVESVGTMRATSTMSEGAQTMIEHNSTMLESDLGTMVINSEDEEEEDGTMKRNATSPQVQRPSFMDYFDKQDFKNKSHENCNQNMHEPFPMSKNVFPDNWKVPQDGDFDFLKNLSLEELQMRLKALDPMMEREIEELRQRYTAKRQPILDAMDAKKRRQQNF
modifications: phosphorylated at the activation loop (T180) as purified from bacteria
SEC
  stoichiometry N: 2

B10: linker-deletion Mst2 (Mst2^ΔL, residues 9-313 and 428-491) (enzyme, human, UniProt Q13188 9-313, looked up)
chain: SKLKKLSEDSLTKQPEEVFDVLEKLGEGSYGSVFKAIHKESGQVVAIKQVPVESDLQEIIKEISIMQQCDSPYVVKYYGSYFKNTDLWIVMEYCGAGSVSDIIRLRNKTLIEDEIATILKSTLKGLEYLHFMRKIHRDIKAGNILLNTEGHAKLADFGVAGQLTDTMAKRNTVIGTPFWMAPEVIQEIGYNCVADIWSLGITSIEMAEGKPPYADIHPMRAIFMIPTNPPPTFRKPELWSDDFTDFVKKCLVKNPEQRATATQLLQHPFIKNAKPVSILRDLITEAMEIKAKRHEEQQRELEEEENWKVPQDGDFDFLKNLSLEELQMRLKALDPMMEREIEELRQRYTAKRQPILDAMDAKKRRQQNF
[1]
  binding result: binds
